How the values were obtained:
[1] = target: expressed protein, similar to At4g22320 (AT5G55210) (Arabidopsis thaliana); experiment: TAP-MS, C-terminal GS tag
[2] = target: OASA1 (O-… (THIOL) LYASE (OAS-TL) ISOFORM A1) (Arabidopsis thaliana); experiment: TAP-MS, C-terminal GS tag
[3] = target: AAC1 (ADP/ATP CARRIER 1) (Arabidopsis thaliana); experiment: TAP-MS, C-terminal GS tag
[4] = target: HIS4 (Arabidopsis thaliana); experiment: TAP-MS, C-terminal GS tag
[5] = target: unknown, similar to At5g55210 (AT4G22320) (Arabidopsis thaliana); experiment: TAP-MS, C-terminal GS tag
[6] = target: SNF2 protein (BRM) (Arabidopsis thaliana); experiment: TAP-MS, C-terminal GS tag
[7] = target: SWIB complex BAF60b domain-containing protein (Swp73B) (Arabidopsis thaliana); experiment: TAP-MS, C-terminal GS tag
[8] = target: DNA-binding bromodomain-containing protein (AT1G20670) (Arabidopsis thaliana); experiment: TAP-MS, C-terminal GS tag
[9] = target: T1, actin-related protein 4 (ARP4) (Arabidopsis thaliana); experiment: TAP-MS, C-terminal GS tag
T1 sequence (Q84M92 1-441, looked up): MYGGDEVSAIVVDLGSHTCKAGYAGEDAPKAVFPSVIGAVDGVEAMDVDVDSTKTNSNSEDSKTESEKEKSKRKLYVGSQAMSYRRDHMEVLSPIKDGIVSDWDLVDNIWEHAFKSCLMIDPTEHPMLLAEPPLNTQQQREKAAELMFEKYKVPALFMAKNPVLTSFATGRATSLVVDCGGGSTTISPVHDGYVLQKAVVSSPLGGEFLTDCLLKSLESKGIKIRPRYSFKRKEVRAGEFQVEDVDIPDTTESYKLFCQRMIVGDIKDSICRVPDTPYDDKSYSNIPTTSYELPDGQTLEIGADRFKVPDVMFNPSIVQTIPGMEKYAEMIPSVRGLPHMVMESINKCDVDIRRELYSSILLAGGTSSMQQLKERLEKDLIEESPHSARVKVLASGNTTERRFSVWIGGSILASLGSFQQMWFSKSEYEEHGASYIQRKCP

[10] = target: Swp73A (Arabidopsis thaliana); experiment: TAP-MS, C-terminal GS tag
[11] = target: T2, actin-related protein 7 (ARP7) (Arabidopsis thaliana); experiment: TAP-MS, C-terminal GS tag
T2 sequence (Q8L4Y5 1-363, looked up): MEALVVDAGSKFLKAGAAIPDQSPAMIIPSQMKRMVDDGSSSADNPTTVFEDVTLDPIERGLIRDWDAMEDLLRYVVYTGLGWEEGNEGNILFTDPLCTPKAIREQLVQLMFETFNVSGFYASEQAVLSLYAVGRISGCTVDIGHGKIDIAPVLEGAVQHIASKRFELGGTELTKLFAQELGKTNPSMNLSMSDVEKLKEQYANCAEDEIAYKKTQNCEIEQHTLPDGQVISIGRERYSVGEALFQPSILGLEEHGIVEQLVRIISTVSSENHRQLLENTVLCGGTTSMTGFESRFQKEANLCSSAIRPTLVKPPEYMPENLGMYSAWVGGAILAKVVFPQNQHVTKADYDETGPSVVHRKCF

[12] = target: DNA-binding bromodomain-containing protein, similar to At1g20670 (AT1G76380) (Arabidopsis thaliana); experiment: TAP-MS, C-terminal GS tag
[13] = target: expressed protein, similar to At3g03460 (AT5G17510) (Arabidopsis thaliana); experiment: TAP-MS, C-terminal GS tag
[14] = target: T3, GLX1 (GLYOXALASE I HOMOLOG) (Arabidopsis thaliana); experiment: TAP-MS, C-terminal GS tag
T3 sequence (O65398 2-283, looked up): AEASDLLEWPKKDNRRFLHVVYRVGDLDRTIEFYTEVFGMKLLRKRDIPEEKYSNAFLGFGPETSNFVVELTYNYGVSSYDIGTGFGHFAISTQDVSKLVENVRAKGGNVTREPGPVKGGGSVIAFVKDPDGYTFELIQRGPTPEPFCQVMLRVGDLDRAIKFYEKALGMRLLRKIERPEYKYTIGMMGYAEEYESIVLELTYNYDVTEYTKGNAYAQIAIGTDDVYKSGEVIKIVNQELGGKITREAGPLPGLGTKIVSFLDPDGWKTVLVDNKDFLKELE

[15] = target: expressed protein, similar to At4g22320 (AT5G55210) (Arabidopsis thaliana); experiment: TAP-MS, N-terminal GS tag
[16] = target: unknown protein, similar to At5g17510 (AT3G03460) (Arabidopsis thaliana); experiment: TAP-MS, N-terminal GS tag
[17] = target: SNF2 protein (BRM) (Arabidopsis thaliana); experiment: TAP-MS, N-terminal GS tag
[18] = target: SWIB complex BAF60b domain-containing protein (Swp73B) (Arabidopsis thaliana); experiment: TAP-MS, N-terminal GS tag
[19] = target: DNA-binding bromodomain-containing protein (AT1G20670) (Arabidopsis thaliana); experiment: TAP-MS, N-terminal GS tag
[20] = target: T1, actin-related protein 4 (ARP4) (Arabidopsis thaliana); experiment: TAP-MS, N-terminal GS tag
[21] = target: Swp73A (Arabidopsis thaliana); experiment: TAP-MS, N-terminal GS tag
[22] = target: T2, actin-related protein 7 (ARP7) (Arabidopsis thaliana); experiment: TAP-MS, N-terminal GS tag
[23] = target: DNA-binding bromodomain-containing protein, similar to At1g20670 (AT1G76380) (Arabidopsis thaliana); experiment: TAP-MS, N-terminal GS tag
[24] = target: expressed protein, similar to At3g03460 (AT5G17510) (Arabidopsis thaliana); experiment: TAP-MS, N-terminal GS tag
[25] = target: CPK23 (calcium-dependent protein kinase 23) (Arabidopsis thaliana); experiment: TAP-MS, N-terminal GS tag
[26] = target: T4, ATASE (Gln Phosphoribosyl Pyrophospate Amidotransferase 1) (Arabidopsis thaliana); experiment: TAP-MS, N-terminal GS tag
T4 sequence (Q9SI61 59-566, looked up): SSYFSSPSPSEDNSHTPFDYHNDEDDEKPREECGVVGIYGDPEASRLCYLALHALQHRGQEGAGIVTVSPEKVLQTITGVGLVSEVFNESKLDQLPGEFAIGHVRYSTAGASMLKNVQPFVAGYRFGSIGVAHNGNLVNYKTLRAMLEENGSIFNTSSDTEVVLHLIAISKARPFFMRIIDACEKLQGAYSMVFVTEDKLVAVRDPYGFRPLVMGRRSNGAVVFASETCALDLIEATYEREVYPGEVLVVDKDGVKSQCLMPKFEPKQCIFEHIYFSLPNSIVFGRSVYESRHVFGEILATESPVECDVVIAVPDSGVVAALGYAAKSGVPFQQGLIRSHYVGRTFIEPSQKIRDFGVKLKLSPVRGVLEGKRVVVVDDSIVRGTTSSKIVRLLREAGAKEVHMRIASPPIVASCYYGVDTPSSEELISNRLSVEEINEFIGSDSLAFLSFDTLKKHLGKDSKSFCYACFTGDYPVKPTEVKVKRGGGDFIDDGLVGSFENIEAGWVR

[27] = target: acyl-(acyl-carrier-protein) desaturase (AT1G43800) (Arabidopsis thaliana); experiment: TAP-MS, N-terminal GS tag
[28] = target: G2484-1, agenet domain-containing protein (Arabidopsis thaliana); experiment: TAP-MS, N-terminal GS tag
[29] = target: expressed protein, similar to DAG protein (AT3G15000) (Arabidopsis thaliana); experiment: TAP-MS, N-terminal GS tag
[30] = target: chromatin remodeling protein (SYD) (Arabidopsis thaliana); experiment: TAP-MS, N-terminal GS tag
[31] = target: T5, GAD (Glutamate decarboxylase); calmodulin binding (Arabidopsis thaliana); experiment: TAP-MS, N-terminal GS tag
T5 sequence (Q42521 1-502, looked up): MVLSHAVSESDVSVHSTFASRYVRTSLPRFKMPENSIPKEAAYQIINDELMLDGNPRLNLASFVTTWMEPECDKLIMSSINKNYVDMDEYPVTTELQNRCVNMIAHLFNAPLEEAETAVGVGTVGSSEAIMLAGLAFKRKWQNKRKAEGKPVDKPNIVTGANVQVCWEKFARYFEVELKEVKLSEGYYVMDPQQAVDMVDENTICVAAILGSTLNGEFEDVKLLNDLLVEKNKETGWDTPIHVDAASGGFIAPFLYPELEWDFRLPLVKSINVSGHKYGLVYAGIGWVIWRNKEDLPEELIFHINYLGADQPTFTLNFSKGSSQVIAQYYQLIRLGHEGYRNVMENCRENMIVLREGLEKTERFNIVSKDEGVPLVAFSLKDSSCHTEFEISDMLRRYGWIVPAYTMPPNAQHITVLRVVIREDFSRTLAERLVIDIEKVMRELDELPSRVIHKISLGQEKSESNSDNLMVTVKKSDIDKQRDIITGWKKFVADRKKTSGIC

[32] = target: PTAC17 (PLASTID …ONALLY ACTIVE17) (Arabidopsis thaliana); experiment: TAP-MS, N-terminal GS tag
[33] = target: importin alpha-2 (IMPA2) (Arabidopsis thaliana); experiment: TAP-MS, N-terminal GS tag

B1: ARP7-GS (protein, UniProt Q8L4Y5 1-363, looked up)
Actin-related protein 7: T2 sequence (Q8L4Y5 1-363, looked up)
modifications: C-terminal GS tag
2: C-GS (times co-purified) [1] | C-GS (times co-purified) [5]
1: C-GS (times co-purified) [2] | C-GS (times co-purified) [3] | C-GS (times co-purified) [4]

B2: SWI3C-GS (protein, UniProt Q9XI07 1-807, looked up)
SWI/SNF complex subunit SWI3C: MPASEDRRGKWKRKKRGGLSAARKPKQEEEDMEEEDEENNNNNNEEMDDVENADELQQNGGATPDPGLGIGEVVEDSGSRISDFPAVVKRVVIRPHASVMAVVAAERAGLIGETRGQGSLPALENISFGQLQALSTVPADSLDLERSDGSSSAYVISPPPIMDGEGVVKRFGDLVHVLPMHSDWFAPNTVDRLERQVVPQFFSGKSPNHTPESYMEFRNAIVSKYVENPEKTLTISDCQGLVDGVDIEDFARVFRFLDHWGIINYCATAQSHPGPLRDVSDVREDTNGEVNVPSAALTSIDSLIKFDKPNCRHKGGEVYSSLPSLDGDSPDLDIRIREHLCDSHCNHCSRPLPTVYFQSQKKGDILLCCDCFHHGRFVVGHSCLDFVRVDPMKFYGDQDGDNWTDQETLLLLEAVELYNENWVQIADHVGSKSKAQCILHFLRLPVEDGLLDNVEVSGVTNTENPTNGYDHKGTDSNGDLPGYSEQGSDTEIKLPFVKSPNPVMALVAFLASAVGPRVAASCAHESLSVLSEDDRMKSEGMQGKEASLLDGENQQQDGAHKTSSQNGAEAQTPLPQDKVMAAFRAGLSAAATKAKLFADHEEREIQRLSANIVNHQLKRMELKLKQFAEIETLLMKECEQVEKTRQRFSAERARMLSARFGSPGGISPQTNNLQGMSLSTGGNNINSLMHQQHQQQQASATSQPSIIPGFSNNPQVQAQMHFMARQQQQQQQQQQQQQQAFSFGPRLPLNAIQTNAGSTASPNVMFGNNQLNNPAAAGAASINQPSFSHPMVRSSTGSGSGSGLGLN
modifications: C-terminal GS tag
1: C-GS (times co-purified) [2] | C-GS (times co-purified) [14] | C-GS (times co-purified) [5]
2: C-GS (times co-purified) [1] | C-GS (times co-purified) [6] | C-GS (times co-purified) [7] | C-GS (times co-purified) [8] | C-GS (times co-purified) [9] | C-GS (times co-purified) [10] | C-GS (times co-purified) [11] | C-GS (times co-purified) [12] | C-GS (times co-purified) [13]

B3: GS-SWI3C (protein, UniProt Q9XI07 1-807, looked up)
SWI/SNF complex subunit SWI3C: B2 SWI/SNF complex subunit SWI3C
modifications: N-terminal GS tag
3: N-GS (times co-purified) [17] | N-GS (times co-purified) [18] | N-GS (times co-purified) [19] | N-GS (times co-purified) [20] | N-GS (times co-purified) [21] | N-GS (times co-purified) [22] | N-GS (times co-purified) [24]
1: N-GS (times co-purified) [16] | N-GS (times co-purified) [25]
2: N-GS (times co-purified) [15] | N-GS (times co-purified) [23]

B4: GS-AN3 (protein, UniProt Q8L8A5 1-210, looked up)
GRF1-interacting factor 1: MQQHLMQMQPMMAGYYPSNVTSDHIQQYLDENKSLILKIVESQNSGKLSECAENQARLQRNLMYLAAIADSQPQPPSVHSQYGSAGGGMIQGEGGSHYLQQQQATQQQQMTQQSLMAARSSMLYAQQQQQQQPYATLQHQQLHHSQLGMSSSSGGGGSSGLHILQGEAGGFHDFGRGKPEMGSGGGGEGRGGSSGDGGETLYLKSSDDGN
modifications: N-terminal GS tag
1: N-GS (times co-purified) [27] | N-GS (times co-purified) [31] | N-GS (times co-purified) [32] | N-GS (times co-purified) [33]
3: N-GS (times co-purified) [29] | N-GS (times co-purified) [22]
2: N-GS (times co-purified) [26] | N-GS (times co-purified) [28] | N-GS (times co-purified) [17]
4: N-GS (times co-purified) [30]
